Source: patent publication US20250255972A1, “METHOD OF TREATING UVEITIS WITH MULTIVALENT PROTEIN-HYALURONIC ACID POLYMER CONJUGATE” (Valitor, Inc., priority 2022, published 2025)
Where a chain is given by its changes, count along the chain named. “Also recorded” adds a separate entry of the source.

How the values were obtained:
[1] = tested on: experimental autoimmune uveoretinitis (EAU) in rats; assay: Second rat EAU model, clinical score by slit lamp, Example 9; assay type: in vivo, Male Lewis rats; settings: FIG. 7A, ITV, triamcinolone (40 μg) or conjugate #10 (19 μg), one day after ITV treatment, vs vehicle
Method: (§1) The efficacy of conjugate #10 was validated to provide a treatment effect that can sufficiently reduce the symptoms of uveitis. Male Lewis rats were divided into 4 groups (n=12 for EAU induced groups and n=8 for uninduced control) and randomized by weight. The groups received either conjugate #10 at 19 μg, triamcinolone (40 μg), or vehicle control. On Day 1, rats in the induced groups were immunized by a subcutaneous injection in each flank with 25 μg of interphotoreceptor retinoid-binding protein (IRBP) peptide R16 in 0.1 mL of complete Freund's adjuvant for 50 μg total. On days 4 and 8, rat eyes were treated bilaterally with a 5 μL intravitreal (ITV) injection of conjugate #10 or vehicle control, or 1 μL ITV injection of triamcinolone based on their assigned treatment. Prior to the start of the study and on days 3, 6, 10, 12 and 14, ocular inflammation was accessed by slit lamp microscopy and assigned a clinical EAU score of 0-4 based on the appearance of inflammation.

[2] = tested on: pro-inflammatory cytokines and inflammatory regulators in rat vitreous; assay: Cytokine analysis of rat vitreous 14 days after uveitis induction (Milliplex bead panel); assay type: in vivo, Male Lewis rats; settings: rat eyes 14 days after uveitis induction; ITV triamcinolone 40 μg or conjugate #10 19 μg
Method: as §1
On day 14, animals were euthanized and one eye from each animal was dissected into vitreous and aqueous humor to perform for cytokine analysis. After dissection the aqueous humor from each group was pooled and all tissues were flash frozen. A milliplex Rat Cytokine/Chemokine magnetic bead panel (Millipore Cat #RECYMAG65K27PMX) was used to assess the relative cytokine concentrations in the tissues according to the manufacturer's protocol. Briefly, the ocular tissues were thawed on ice and the sample volume was measured. Then, assay buffer was added to the samples to achieve a final volume of 55 μL for duplicate readings and mixed well. Next, 25 μL of samples, standards or controls was added to the assay plate, mixed with 25 μL of beads and incubated at room temperature for 2 hours. The wells were washed on a magnetic plate washer and incubated with 25 μL of detection antibodies for one hour and then 25 μL of Streptavadin-Phycoerythrin for 30 minutes. Wells were washed on a magnetic plate washer and 125 μL of Sheath Fluid Plus was added per well and then read on the Luminex. The amount of cytokine recovered from each sample was normalized to the volume of tissue recovered and plotted.

Human TNFα = target: T1, Human TNFα (Homo sapiens, UniProt P01375); assay: Biolayer interferometry (BLI) binding kinetics, Human TNFα ligand; settings: purified conjugate
T1 construct: Avi; His; purchased Acro Biosystems TNA-H82E3
T1 sequence (P01375 77-233 limits assumed): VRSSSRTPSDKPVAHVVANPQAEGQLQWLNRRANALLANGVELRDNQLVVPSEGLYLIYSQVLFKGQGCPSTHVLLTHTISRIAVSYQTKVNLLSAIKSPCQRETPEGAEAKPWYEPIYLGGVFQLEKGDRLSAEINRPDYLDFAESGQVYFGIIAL

TNFα = assay: Long-term 37° C. stability, change in Kon by BLI; assay type: physicochemical; settings: FIG. 4B
Method: (§2) We then used the top performers from the thermal stability experiments in a long-term 37° C. stability studies. The MVPs were synthesized under sterile conditions and diluted to around 0.4 mg/mL in a sterile filtered human vitreous mimetic buffer (see Table 10) or remained in formulation buffer. The samples were either filtered using sterile 0.2 or 5 μm spin filters before use or mixed with 0.010% sodium azide as an anti-microbial agent. Then, several 100-150 μL aliquots of each sample were added to wells of a sterile 96 well plate with one day 0 aliquot reserved at 4° C. The remaining wells were filled with a sterile filtered human vitreous buffer+0.01% sodium azide to minimize evaporation. The plate was incubated in a standard tissue culture incubator at 37° C. with 5% CO2. At discrete timepoints, one aliquot from each sample was removed from the plate under sterile conditions and analyzed. […] Then, the protein concentration was measured to adjust for any differences in volume that may have occurred. […] To monitor changes in radius over time, the samples were spun for 5 minutes at 5000 g to remove any large aggregates or dust particles and the Rh was measured using DLS methods described above except that the instrument is at 37° C. and without any sample dilution.

[3] = target: T2, Human IL-1β, Fc tagged (Acro Biosystems ILA-H525c) (human, UniProt P01584 117-269); assay: BLI (Gator), Fc-tagged IL-1β on anti-human Fc probes, conjugate as analyte, 1:1 global fit
T2 construct: Bought BLI ligand, loaded on anti-human Fc probes; also called BLI ligand; not shown: Fc tag

[4] = target: T3, Human TNFα, Avi and His tagged (Acro Biosystems TNA-H82E3) (human, UniProt P01375 77-233); assay: BLI (Gator), Avi-tagged TNFα on streptavidin probes, conjugate as analyte, 1:1 global fit
T3 construct: Bought BLI ligand, loaded on streptavidin probes through the Avi tag; also called BLI ligand
T3 sequence (P01375 77-233 limits assumed): as above

[5] = Hydrodynamic radius by dynamic light scattering (DLS); assay type: physicochemical; settings: 25° C.
[6] = Long-term 37° C. stability in vitreous mimetic buffer, radius by DLS; assay type: physicochemical; settings: FIG. 4C; after 35 days at 37° C. in vitreous mimetic buffer
Method: as §2

[7] = tested on: experimental autoimmune uveoretinitis (EAU) in rats; assay: Rat experimental autoimmune uveoretinitis (EAU) model, Example 8; assay type: in vivo, Male Lewis rats; settings: vs vehicle
Method: The efficacy of mu_anti-TNFα_aH_CYS MVPs were validated to provide a treatment effect that can sufficiently reduce the symptoms of uveitis. A rat model of experimental autoimmune uveoretinitis (EAU) was used as a model of chronic posterior uveitis in humans. This model was induced by systemic immunization with the uveitogenic interphotoreceptor retinoid-binding protein (IRBP), and symptoms of uveitis appeared after 9-11 days. Rats were treated intravitreally with 12.5 μg of mu_anti-TNFα_aH_CYS MVP (Conjugate #7). As a positive control, dexamethasone was used.
Male Lewis rats were divided into 4 groups (n=8) and randomized by weight. […] On Day 1, rats were immunized by a subcutaneous injection at the base of the tail and in each thigh with 30 μg of bovine IRBP peptide R16 in 0.2 mL of Freund's adjuvant. On days 8 and 10, rat eyes were treated bilaterally with a 5 μL ITV injection of either dose of their assigned treatment. Prior to the start of the study and on days 7, 9, 11, 14, we assessed ocular inflammation by slit lamp microscopy and assigned a clinical EAU score of 0-4 based on the appearance of inflammation. On day 14, animals were euthanized, one eye from each animal was processed for histopathology, and assigned a score of 0-4 based on the appearance of inflammation and cell infiltration. EAU and histopathology were scored based on published standardized scoring systems.

## C[C@]12C=CC(=O)C=C1CC[C@H]1[C@@H]3C[C@@H](O)[C@](O)(C(=O)CO)[C@@]3(C)C[C@H](O)[C@@]12F [Triamcinolone, triamcinolone, reference compound]
[1]
  Average inflammation score (clinical EAU score, 0=none to 4=severe): decreased inflammation compared to the vehicle control
[2]
  IFNγ concentration in the vitreous ± SD: 2.540 ± 1.804 ng/mL
  IL-1α concentration in the vitreous ± SD: 1.321 ± 0.844 ng/mL
  IL-1β concentration in the vitreous ± SD: 0.721 ± 0.445 ng/mL
  IL-6 concentration in the vitreous ± SD: 19.936 ± 17.156 ng/mL
  MCP-1 concentration in the vitreous ± SD: 2.705 ± 2.640 ng/mL
  TNFα concentration in the vitreous ± SD: 0.046 ± 0.051 ng/mL

B1: Conjugate #5: (SEQ ID NO:103, anti-TNFα VHH (mouse)-aH)+HyA (850 kDa) conjugate, MP2H linker, valency 121 (conjugate)
VHH: QVQLQDSGGGLVQAGGSLRLSCAASGGTFSSIIMAWFRQAPGKEREFVGAVSWSGGTTVYADSVLGRFEISRDSARKSVYLQMNSLKFPEDTAVYYCAARPYQKYNWASASYNVWGQGTQVTVSSAEAAAKEAAAKEAAAKAGC
modifications: hyaluronic acid 850 kDa conjugate via MP2H linker; anti-TNFalpha VHH (mouse)- aH
Human TNFα
  Kd: ≤ 0.001 nM
TNFα; after 5 days at 37° C.
  change in association constant of TNFα binding: dramatically decreased

B2: (SEQ ID NO:106)+HyA (850 kDa) conjugate #9, valency 15 (other)
scFv: EIVMTQSPSTLSASVGDRVIITCQASQSIDNWLSWYQQKPGKAPKLLIYRASTLASGVPSRFSGSGSGAEFTLTISSLQPDDFATYYCQNTGGGVSIAFGQGTKLTVLGGGGGSGGGGSGGGGSGGGGSEVQLVESGGGLVQPGGSLRLSCTASGFSLSSAAMAWVRQAPGKGLEWVGIIYDSASTYYASWAKGRFTISRDTSKNTVYLQMNSLRAEDTAVYYCARERAIFSGDFVLWGQGTLVTVSSSPSTPPTPSPSTPPGGC
modifications: C-terminal cysteine thiol of the rigid peptide linker joined through the EMCH organic linker to hyaluronic acid
[3]
  Kd: 353 pM

B3: (SEQ ID NO:149)+HyA conjugate #12, valency 99 (other)
VHH: QVQLVESGGGLVQPGGSLRLSCAASGGTFSSIIMAWFRQAPGKEREFVGAVSWSGGTTVYADSVKGRFTISRDNSKNTVYLQMNSLRPEDTAVYYCAARPYQKYNWASASYNVWGQGTLVTVSSAEAAAKEAAAKEAAAKAGC
modifications: C-terminal cysteine thiol of the aH peptide linker joined through the MP2H organic linker to hyaluronic acid
[4]
  Kd: ≤ 1 pM

B4: Conjugate #12: (SEQ ID NO:149, Hu aTNFα 3MUT aH_CYS)+hyaluronic acid conjugate, MP2H linker, valency 99 (conjugate)
VHH: B3 VHH
modifications: hyaluronic acid conjugate, MP2H linker; Hu_aTNFaMu_3MUT aH_CYS
[5]
  Rh (nm, DLS): 70.12 nm

B5: Conjugate #6: (SEQ ID NO:104, anti-TNFα 3MUT VHH (mouse)-aH)+HyA (850 kDa) conjugate, MP2H linker, valency 51 (conjugate)
VHH: B3 VHH with V5Q, P14A, N74S, S75A, K76R, N77K, T78S, R87K, L119Q
modifications: hyaluronic acid 850 kDa conjugate via MP2H linker; anti-TNFalpha 3MUT VHH (mouse)- aH
Human TNFα
  Kd: ≤ 0.001 nM
[5]
  Rh (nm, DLS): 76.8 nm
TNFα; after 35 days at 37° C.
  change in association constant of TNFα binding: minimal change
[6]
  conjugate size (DLS) as share of the original radius: about 75%

B6: Conjugate #13: (SEQ ID NO:150, Hu aTNFα 5MUT aH_CYS)+hyaluronic acid conjugate, MP2H linker, valency 102 (conjugate)
VHH: B3 VHH with G49A, V51I
modifications: hyaluronic acid conjugate, MP2H linker; Hu_aTNFaMu_5MUT aH_CYS
[5]
  Rh (nm, DLS): 71.64 nm

B7: Conjugate #7: (SEQ ID NO:104, anti-TNFα 3MUT VHH (mouse)-aH)+HyA (850 kDa) conjugate, MP2H linker, valency 98 (conjugate)
VHH: B3 VHH with V5Q, P14A, N74S, S75A, K76R, N77K, T78S, R87K, L119Q
modifications: hyaluronic acid 850 kDa conjugate via MP2H linker; anti-TNFalpha 3MUT VHH (mouse)- aH
Human TNFα
  Kd: ≤ 0.001 nM
[5]
  Rh (nm, DLS): 76.42 nm
[6]
  conjugate size (DLS) as share of the original radius: about 75%
[7]; FIG. 6A, rat EAU, ITV, or Conjugate #7 (12.5 μg), n=8, one day after ITV treatment
  Average inflammation score (0=none to 4=severe): decreased inflammation compared to the vehicle control
[7]; FIG. 6B, rats sacrificed 14 days after model induction, p<0.05
  Average histology inflammation score (0=none to 4=severe): less inflamed than vehicle treated eyes

B8: Conjugate #10: (SEQ ID NO:104, anti-TNFα 3MUT VHH (mouse)-aH)+HyA (850 kDa) conjugate, MP2H linker, valency 96.5 (conjugate)
VHH: B3 VHH with V5Q, P14A, N74S, S75A, K76R, N77K, T78S, R87K, L119Q
modifications: hyaluronic acid 850 kDa conjugate, MP2H linker; anti-TNFalpha 3MUT VHH (mouse)- aH
Human TNFα
  Kd: ≤ 0.001 nM
[5]
  Rh (nm, DLS): 99.14 nm
[1]
  Average inflammation score (clinical EAU score, 0=none to 4=severe): comparable to triamcinolone; also recorded: decreased inflammation compared to the vehicle control
[2]
  IFNγ concentration in the vitreous ± SD: 3.116 ± 1.436 ng/mL
  IL-1α concentration in the vitreous ± SD: 1.511 ± 0.709 ng/mL
  IL-1β concentration in the vitreous ± SD: 0.667 ± 0.271 ng/mL
  IL-6 concentration in the vitreous ± SD: 25.565 ± 15.702 ng/mL
  MCP-1 concentration in the vitreous ± SD: 3.843 ± 2.499 ng/mL
  TNFα concentration in the vitreous ± SD: 0.058 ± 0.038 ng/mL

B9: (SEQ ID NO:150)+HyA conjugate #13, valency 102 (other)
VHH: B3 VHH with G49A, V51I
modifications: C-terminal cysteine thiol of the aH peptide linker joined through the MP2H organic linker to hyaluronic acid
notes: also called Conjugate ID 13
[4]
  Kd: ≤ 1 pM
